In assay [1] the test system is anti-WT1235 peptide IgG antibody. Description: ELISA using variant WT1 antigen peptide as immobilized antigen to assay anti-WT1235 peptide IgG antibody. It is filed as binding, human. The following applies: serum of thymic carcinoma patient given WT1235 peptide; increase in titer detected; FIG. 19. As to the method: WK235-243 (SEQ ID NO: 62) and WT237-243 (SEQ ID NO: 63) were synthesized by GL Biochem (Shanghai) Corporation Ltd. WT1-frg2 (SEQ ID NO: 61) was prepared in the same way as in the aforementioned WT1-frg3 (SEQ ID NO: 57).
The measurement of the antibody titer using WT1-frg2 (SEQ ID NO: 61) was performed in the same way as in the aforementioned WT1-frg3 (SEQ ID NO: 57). The measurement of the antibody titer using WK235-243 (SEQ ID NO: 62) or WT237-243 (SEQ ID NO: 63) was performed in the same way as in the aforementioned WT332-347 (SEQ ID NO: 58), etc.
For orientation: An ELISA detects its analyte on a solid surface through an enzyme-linked reagent.

The subject of assay [2] is anti-WT1126 peptide IgG antibody. Kind of assay: ELISA using variant WT1 antigen peptide as immobilized antigen to assay anti-WT1126 peptide IgG antibody. It is filed as binding, human. The following applies: serum of pancreatic cancer patient given WT1126 peptide; increase in titer detected; FIG. 20. The protocol:
WT126-134 (SEQ ID NO: 65), WK126-134 (SEQ ID NO: 66), WT128-134 (SEQ ID NO: 67), WT126-132 (SEQ ID NO: 68), WT129-134 (SEQ ID NO: 69), WT126-131 (SEQ ID NO: 70), and WT126-130 (SEQ ID NO: 71) were synthesized by GL Biochem (Shanghai) Corporation Ltd. WT1-frg1 (SEQ ID NO: 64) was prepared in the same way as in the aforementioned WT1-frg3 (SEQ ID NO: 57).
The measurement of the antibody titer using WT1-frg1 (SEQ ID NO: 64) was performed in the same way as in the aforementioned WT1-frg3 (SEQ ID NO: 57). The measurement of the antibody titer using WT126-134 (SEQ ID NO: 65), WK126-134 (SEQ ID NO: 66), WT128-134 (SEQ ID NO: 67), WT126-132 (SEQ ID NO: 68), WT129-134 (SEQ ID NO: 69), WT126-131 (SEQ ID NO: 70), or WT126-130 (SEQ ID NO: 71) was performed in the same way as in the aforementioned WT332-347 (SEQ ID NO: 58), etc.

B1: WT1-frg2: long chain peptide (145 aa, SEQ ID NO: 61) containing the whole length (Y2M) of the administered WT1235 peptide (protein)
chain: DPMGQQGSLGEQQYSVPPPVYGCHTPTDSCTGSQALLLRTPYSSDNLYQMTSQLECMTWNQMNLGATLKGVAAGSSSSVKWTEGQSNHSTGYESDNHTTPILCGAQYRIHTHGVFRGIQDVRRVPGVAPTLVRSASETSEKRPFM
As to B1, the “ability as ELISA antigen to measure anti-WT1235 IgG antibody level in patient's serum” value in assay [1] is recorded as “could measure an anti-WT1235 IgG antibody level in patient's serum”.

B2: WT1-frg1: long-chain peptide (182 aa, SEQ ID NO: 64) containing the whole length of the administered WT1126 peptide (protein)
chain: MGSDVRDLNALLPAVPSLGGGGGCALPVSGAAQWAPVLDFAPPGASAYGSLGGPAPPPAPPPPPPPPPHSFIKQEPSWGGAEPHEEQCLSAFTVHFSGQFTGTAGACRYGPFGPPPPSQASSGQARMFPNAPYLPSCLESQPAIRNQGYSTVTFDGTPSYGHTPSHHAAQFPNHSFKHEDPM
On to B2, for which, in assay [2], the “ability as ELISA antigen to measure anti-WT1126 IgG antibody level in patient's serum” value is “could measure an anti-WT1126 IgG antibody level in patient's serum”.

For the origin of these results see patent US20160084841A1, “Method for Predicting Clinical Effect of Immunotherapy” (INTERNATIONAL INSTITUTE OF CANCER IMMUNOLOGY, INC., priority 2013, published 2016).
